Patent US20150203579A1 (Regeneron, published 2015)
Read-outs that look alike come from different tables or passages of the source.

How the values were obtained:
[1] = biological target: T1, full length human PD-1 on HEK293/hPD-1 cells (human, UniProt Q15116 25-288); experiment: FACS, 100 nM mAb
[2] = biological target: T2, PD-1 chimera: extracellular domain of human PD-1 with trans-membrane and cytoplasmic domains of human CD300a, … (human, UniProt Q9UGN4 181-299, limits assumed); experiment: cell-based or functional assay
monkey PD-1 with mFc [3] = biological target: T3, monkey PD-1 with mFc (monkey); experiment: SPR, captured mAb, 25 C;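 further: purified anti-PD-1 antibodies tested on Biacore 4000 or T200 instruments, rate constants obtained via 1:1 binding model fit, with KD as kd/ka and half-life as ln2/(60·kd)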
T3 construct: also called monkey PD-1-mFc; monkey PD-1 dimer
T3 chain: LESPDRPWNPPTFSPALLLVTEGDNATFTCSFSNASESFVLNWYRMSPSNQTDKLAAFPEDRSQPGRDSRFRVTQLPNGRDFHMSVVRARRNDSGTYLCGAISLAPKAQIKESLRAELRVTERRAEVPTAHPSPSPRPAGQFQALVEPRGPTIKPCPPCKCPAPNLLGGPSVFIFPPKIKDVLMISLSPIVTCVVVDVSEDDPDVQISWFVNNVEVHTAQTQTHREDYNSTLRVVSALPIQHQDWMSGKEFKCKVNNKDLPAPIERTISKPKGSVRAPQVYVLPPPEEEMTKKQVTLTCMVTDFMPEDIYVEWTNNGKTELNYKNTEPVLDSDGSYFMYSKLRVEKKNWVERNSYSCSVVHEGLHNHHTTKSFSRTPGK

monkey PD-1 with mFc [4] = biological target: T3, monkey PD-1 with mFc; experiment: SPR, captured mAb, 37 C;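 further: Real-time Biacore surface plasmon resonance biosensor readout of PD-1 reagent binding to purified anti-PD-1 monoclonal antibodies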
[5] = biological target: T1, full length human PD-1 on HEK293/hPD-1 …; experiment: FACS, 100 nM mAb, HEK293/hPD-1 cells;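 further: antibodies incubated with cells for 15-30 min on ice, bound antibody detected through a secondary F(ab′)2 by flow cytometry, with parental HEK293 cells tested in parallel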
[6] = biological target: T1, full length human PD-1 on HEK293/hPD-1 …; experiment: FACS dose response, HEK293/hPD-1 cells; No EC50 determined
[7] = biological target: T4, recombinant human PD-L1 expressed with a C-terminal mouse IgG2a Fc tag (human); experiment: SPR Biacore 3000: 500 nM mAb alone (no hPD-1.hFc) over captured hPD-L1.mFc surface, control
T4 construct: also called hPD-L1-mFc; hPD-L1.mFc

[8] = biological target: T2, PD-1 chimera: extracellular domain of …; experiment: cell-based or functional assay; remark: listed apart in the source
[9] = biological target: T1, full length human PD-1 on HEK293/hPD-1 …; experiment: FACS dose response, HEK293/hPD-1 cells; EC50 Inconclusive
[10] = biological target: T5, recombinant human PD-1 expressed with a C-terminal human IgG1 Fc tag (human); experiment: SPR Biacore 3000: 100 nM hPD-1.hFc + 500 nM mAb to captured hPD-L1.mFc;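 further: inhibition study with anti-PD-1 mAbs, SPR responses tracked in real time and read at the close of each step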
T5 construct: also called hPD-1-hFc; hPD1-hFc

[11] = biological target: T6, recombinant human PD-1 dimer expressed with a C-terminal mouse IgG2a Fc tag (human); experiment: BLI Octet: 100 nM hPD-1-mFc + 500 nM mAb to captured hPD-L1-hFc
T6 construct: also called hPD-1-mFc

[12] = biological target: T1, full length human PD-1 on HEK293/hPD-1 …; experiment: FACS dose response, HEK293/hPD-1 cells
[13] = biological target: T7, human PD-1 dimer (human PD-1-mFc or human PD-1-hFc) (human, UniProt Q15116 25-170); experiment: SPR, mAb captured, 25C;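 further: surface plasmon resonance on Biacore, PD-1 flowed over captured anti-PD-1 antibodies, rate constants from a 1:1 binding model fit, KD taken as kd/ka and t½ as ln2/(60·kd)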
T7 construct: also called hPD-1-mFc; hPD1-hFc

[14] = biological target: T7, human PD-1 dimer (human PD-1-mFc or …); experiment: SPR, mAb captured, 37C;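 further: Real-time Biacore biosensor, PD-1 dimer flowed over anti-PD-1 antibody surface, rate constants fitted to a 1:1 model, KD derived as kd/ka and t½ as ln2/(60·kd)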
[15] = biological target: T8, recombinant cynomolgus monkey PD-1 expressed with a C-terminal myc-myc-hexahistidine tag (cynomolgus monkey (Macaca fascicularis)); experiment: SPR, mAb captured, 25C; 25 C
T8 construct: monomeric; also called MfPD-1-MMH
T8 chain: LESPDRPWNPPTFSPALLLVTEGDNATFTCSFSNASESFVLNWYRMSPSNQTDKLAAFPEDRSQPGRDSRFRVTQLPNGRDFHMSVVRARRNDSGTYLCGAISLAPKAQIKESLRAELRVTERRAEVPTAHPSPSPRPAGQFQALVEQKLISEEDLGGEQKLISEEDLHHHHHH

T5 sequence (chain, as listed by the source limits assumed): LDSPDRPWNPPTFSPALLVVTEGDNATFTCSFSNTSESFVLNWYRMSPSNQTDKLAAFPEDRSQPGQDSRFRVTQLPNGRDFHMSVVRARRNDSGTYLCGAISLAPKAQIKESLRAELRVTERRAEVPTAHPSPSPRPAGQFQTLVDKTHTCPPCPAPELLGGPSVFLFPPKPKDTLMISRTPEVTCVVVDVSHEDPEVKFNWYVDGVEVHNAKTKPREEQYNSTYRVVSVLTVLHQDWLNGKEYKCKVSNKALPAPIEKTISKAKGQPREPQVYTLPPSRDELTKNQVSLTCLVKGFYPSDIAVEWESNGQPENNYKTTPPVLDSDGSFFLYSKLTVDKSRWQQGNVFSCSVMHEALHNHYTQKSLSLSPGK
T2 sequence (Q9UGN4 other isoform, or with tags, fused parts or gaps mutant limits assumed, form in doubt): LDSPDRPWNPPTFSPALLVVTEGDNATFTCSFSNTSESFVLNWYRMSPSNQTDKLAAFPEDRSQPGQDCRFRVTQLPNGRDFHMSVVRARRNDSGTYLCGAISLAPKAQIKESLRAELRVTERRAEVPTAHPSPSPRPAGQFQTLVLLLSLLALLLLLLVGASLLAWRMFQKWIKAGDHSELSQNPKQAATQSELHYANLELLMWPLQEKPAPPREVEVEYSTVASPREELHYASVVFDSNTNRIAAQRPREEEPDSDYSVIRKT
T7 sequence (Q15116 25-170 C93S): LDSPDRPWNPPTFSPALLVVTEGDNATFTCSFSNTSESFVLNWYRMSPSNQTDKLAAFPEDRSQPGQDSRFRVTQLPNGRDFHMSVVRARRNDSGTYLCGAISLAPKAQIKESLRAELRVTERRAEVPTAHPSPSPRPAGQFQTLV
T6 sequence (chain, as listed by the source limits assumed): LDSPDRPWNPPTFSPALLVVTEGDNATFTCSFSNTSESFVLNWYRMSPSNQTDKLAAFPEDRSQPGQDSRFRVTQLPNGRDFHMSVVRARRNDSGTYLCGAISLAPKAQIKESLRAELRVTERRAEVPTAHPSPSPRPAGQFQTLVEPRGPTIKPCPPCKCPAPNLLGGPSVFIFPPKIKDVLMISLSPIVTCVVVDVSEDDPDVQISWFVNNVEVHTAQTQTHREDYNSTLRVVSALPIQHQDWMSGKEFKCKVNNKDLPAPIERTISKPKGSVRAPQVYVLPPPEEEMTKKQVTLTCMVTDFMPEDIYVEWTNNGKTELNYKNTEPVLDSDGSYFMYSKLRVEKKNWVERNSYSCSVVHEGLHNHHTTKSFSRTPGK
T1 sequence (Q15116 25-288 limits assumed): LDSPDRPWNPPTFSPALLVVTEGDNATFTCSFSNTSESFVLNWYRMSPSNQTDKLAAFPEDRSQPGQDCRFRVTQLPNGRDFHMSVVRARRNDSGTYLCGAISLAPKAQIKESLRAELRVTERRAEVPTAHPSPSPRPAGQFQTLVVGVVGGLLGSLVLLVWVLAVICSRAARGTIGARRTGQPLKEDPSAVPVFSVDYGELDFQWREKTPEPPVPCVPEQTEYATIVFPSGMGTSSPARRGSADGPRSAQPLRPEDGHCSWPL

Binder | ratio of MFI HEK293/hPD-1 to HEK293 parental cells [1] | Emax mean [%] @ 100 nM [2] [%] | 100 nM Monkey PD-1-mFc Bound (RU) (monkey PD-1 with mFc [3]) | Kd (monkey PD-1 with mFc [3]) [nM] | koff (monkey PD-1 with mFc [3]) [s⁻¹] | kon (monkey PD-1 with mFc [3]) [M⁻¹ s⁻¹] | t1/2 (monkey PD-1 with mFc [3]) [min] | 100 nM Monkey PD-1-mFc Bound (RU) (monkey PD-1 with mFc [4]) | Kd (monkey PD-1 with mFc [4]) [nM] | koff (monkey PD-1 with mFc [4]) [s⁻¹] | kon (monkey PD-1 with mFc [4]) [M⁻¹ s⁻¹] | t1/2 (monkey PD-1 with mFc [4]) [min] | MFI [5] [MFI] | Max Geom. Mean MFI @ 100 nM [6] [MFI] | 500 nM of anti-PD-1 monoclonal antibody (RU) [7] [RU] | Emax mean [%] @ 100 nM [8] [%] | Max Geom. Mean MFI @ 100 nM [9] [MFI] | % Blocking [10] [%] | binding of the mixture (RU) [10] [RU] | % Blocking [11] [%] | further results
H4H9068P2 (antibody, V domains shown, fully human; H4H prefix (human IgG4 Fc)) VH: EVQLVESGGGLVQRGGSLRLSCAASGFSFSSYAMNWVRQAPGKGLEWVSTISDSGGSTYYADSVKGRFTISRDNSKNTLSLQMNSLRAEDTAVYYCAKDQGGSYPYYFHYWGQGTLVTVSS VL: not shown | 6.8 | 102 | 17 | 54.2 | 0.00309 | 57000 | 4 | 6 | 86.3 | 0.0105 | 121000 | 1.1 | 1940 | 639 | -2 | – | – | – | – | – | –
H4H9008P (antibody, human IgG4 S228P, kappa, V domains shown, human IgG4 Fc) VH: EVQLVESGGGLVRPGGSLRLSCAASGFTFSTYAMAWVRQTPGKGLEGVSAIGGSGDSTYYVDSVKGRFTISRDNSKSTLFLQMNSLRAEDTAVYYCVKVRNYDGSFDIWGQGTMVTVSS VL: not shown | – | – | – | – | – | – | – | – | – | – | – | – | – | – | -7 | 150 | 32200 | 107 | -7 | – | –
H1M7789N (antibody, V domains shown, human variable regions, mouse IgG1 Fc) VH: EVQLLESGGGLVQPGGSLRLSCSASGFTFSSYTMNWVRQAPGKGLEWVSGISDTGGNTYYTDSVKGRFTVSRDNSKNTLSLQMNSLRAEDTAVYYCAKDQGGSYPYYFHYWGQGSLVTVSS VL: DIQMTQSPSSLSASVGDRVTITCRASQSISSYLIWYQQKPGTAPKFLIYAASSLQSGVPSRFSGCGSGTDFTLTISSLQPEDFATYYCQQSYSTPPITFGQGTRLEIK | 92.3 | 135 | – | – | – | – | – | – | – | – | – | – | 24200 | – | – | – | 35600 | – | – | 29 | binding of the mixture (nm) [11]: 0.05 nm
H4H7798N (antibody, human IgG4 S228P, kappa, V domains shown, human IgG4 Fc) VH: EVQLLESGGVLVQPGGSLRLSCAASGFTFSNFGMTWVRQAPGKGLEWVSGISGGGRDTYFADSVKGRFTISRDNSKNTLYLQMNSLKGEDTAVYYCVKWGNIYFDYWGQGTLVTVSS VL: DIQMTQSPSSLSASVGDSITITCRASLSINTFLNWYQQKPGKAPNLLIYAASSLHGGVPSRFSGSGSGTDFTLTIRTLQPEDFATYYCQQSSNTPFTFGPGTVVDFRR | – | 202 | 93 | 0.137 | 6.14e-05 | 449000 | 188 | 88 | 0.202 | 0.000127 | 630000 | 91 | – | – | -6 | 343 | – | 106 | -6 | – | Concentration (M) of Antibody at 150% activation [2]: 1.54e-09 M; EC50 [12]: 0.509 nM; Max Geom. Mean MFI @ 100 nM [12]: 20300 MFI
H2aM7795N (antibody, V domains shown, human variable regions, mouse IgG2a Fc; also called H2M7795N) VH: EVQVVESGGGLVEPGRSLRLSCKASGFTFDDYAMHWVRQTPGKALEWVSGINWSGNNIGYADSVKGRFTISKDDAKNSLYLQMNSLRPEDTALYYCTKDISITGTLDAFDVWGQGTMVTVSS VL: DIQMTQSPISVSASVGDRVTITCRASQGISNWLAWYQQKPGIAPKLLIYSASSLQSGVPSRFRGSGSGTDFTLTIGSLQPEDFATYYCQQAHSFPLTFGGGTKVEIK | 2.8 | 109 | – | – | – | – | – | – | – | – | – | – | 817 | 624 | – | – | – | – | – | 114 | binding of the mixture (nm) [11]: -0.01 nm
H4H7795N2 (antibody, human IgG4 S228P, kappa, V domains shown, human IgG4 Fc) VH: EVQVVESGGGLVEPGRSLRLSCKASGFTFDDYAMHWVRQTPGKALEWVSGISWSGNNIGYADSVKGRFTISKDDAKNSLYLQMNSLRPEDTALYYCTKDISITGTLDAFDVWGQGTMVTVSS VL: DIQMTQSPISVSASVGDRVTITCRASQGISNWLAWYQQKPGIAPKLLIYSASSLQSGVPSRFRGSGSGTDFTLTIGSLQPEDFATYYCQQAHSFPLTFGGGTKVEIKR | – | – | 60 | 0.621 | 9.92e-05 | 160000 | 116 | 47 | 1.71 | 0.00029 | 170000 | 40 | – | – | -5 | 110 | 15200 | 106 | -6 | – | –
H2aM7791N (antibody, V domains shown, human variable regions, mouse IgG2a Fc; also called H2M7791N) VH: QMQLQQWGAGLLKPSETLSLTCVVYGGSLNGYYWSWIRQSPGKGLEWIGEIDHSGSTNYNPSLKNRVTMSVDTSKIQFSLKLTSVTVADTAVYYCAREGLLPFDYWGQGTLVTVSS VL: EIVLTQSPGTLSLSPGERVTLSCRASQSVYSNYLAWYQQNPGQAPRLLIYAASNRATGIPDRFSGSGSGTDFTLTISRLEPEDFAVYYCHQYATSPWTFGQGTKVEIK | 18 | 103 | – | – | – | – | – | – | – | – | – | – | 4950 | 1400 | – | – | – | – | – | -229 | binding of the mixture (nm) [11]: 0.23 nm
H4H9057P2 (antibody, human IgG4, V domains shown, Fully human; H4H prefix (human IgG4 Fc)) VH: EVQLVESGGGLVQSGRSLRLSCAASGFTFDDYAMHWVRQPPGKGLEWVSGINWNRGRTGYADSVKGRFTISRDNAKNSLYLQMNDLRVEDTALYYCAKAEQWLDEGYFDYWGQGTLVTVSS VL: not shown | – | – | – | – | – | – | – | – | – | – | – | – | – | – | – | – | – | – | – | – | Kd [13]: 1.75 nM; koff [13]: 0.000177 s⁻¹; kon [13]: 101000 M⁻¹ s⁻¹; t½ [13]: 65 min; Kd [14]: 9.07 nM; koff [14]: 0.00211 s⁻¹; kon [14]: 233000 M⁻¹ s⁻¹; t½ [14]: 5 min; Kd [15]: 551 nM; koff [15]: 0.0191 s⁻¹; kon [15]: 34600 M⁻¹ s⁻¹; t½ [15]: 0.6 min
